Results on two molecules are retold here after paper PMC5662751, “Post-transcriptional gene silencing mediated by microRNAs is controlled by nucleoplasmic Sfpq”.

The data set addresses T1, Sfpq wild-type (human, UniProt P23246 1-707).
T1 sequence: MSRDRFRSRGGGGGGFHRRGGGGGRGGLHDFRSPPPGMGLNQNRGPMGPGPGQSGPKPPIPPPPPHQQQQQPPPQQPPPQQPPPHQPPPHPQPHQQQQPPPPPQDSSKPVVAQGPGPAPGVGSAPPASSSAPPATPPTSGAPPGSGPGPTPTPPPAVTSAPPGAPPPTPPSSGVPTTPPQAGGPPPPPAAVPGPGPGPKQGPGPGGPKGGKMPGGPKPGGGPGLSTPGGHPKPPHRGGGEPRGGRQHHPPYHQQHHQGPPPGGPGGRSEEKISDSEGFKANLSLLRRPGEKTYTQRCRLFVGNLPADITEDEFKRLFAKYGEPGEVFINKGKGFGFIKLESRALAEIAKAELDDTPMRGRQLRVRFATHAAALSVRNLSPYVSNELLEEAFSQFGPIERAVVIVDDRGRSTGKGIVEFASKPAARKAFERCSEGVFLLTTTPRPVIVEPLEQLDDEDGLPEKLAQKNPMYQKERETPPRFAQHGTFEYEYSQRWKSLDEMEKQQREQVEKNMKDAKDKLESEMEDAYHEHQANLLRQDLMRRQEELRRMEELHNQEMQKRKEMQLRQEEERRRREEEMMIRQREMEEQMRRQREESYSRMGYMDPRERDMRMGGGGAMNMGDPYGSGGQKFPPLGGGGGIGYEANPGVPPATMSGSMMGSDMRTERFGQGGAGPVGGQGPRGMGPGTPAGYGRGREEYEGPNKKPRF
Nature of the data set: UV crosslinking; 100 nM Sfpq; EMSA: 75 mM Hepes pH 7.9, 150 mM NaCl, 75 mM KCl, 0.1 mM EDTA, 5 mM DTT, 5 mM PMSF, 15% glycerol, 15 min, room temperature; AFM: 120 mM NaCl, 24 mM Tris-HCl pH. The conditions noted are these: protein: recombinant, tags: 6xHis (pET15b), chain copies: 2, label: 32P. In general terms: A gel shift assay detects complexes by their altered migration in electrophoresis.

B1: CUGU/CUGUA x2 oligo (ssRNA)
RNA: CUGUACUGUA
In the case of B1, the binding result (two copies of CUGUA (contains CUGU)) is on record as “binds”.

B2: Sfpq negative RNA oligo (CCCCG x2) (ssRNA)
RNA: CCCCGCCCCG
In the case of B2, the binding result was “no binding”.
